Reference: publication PMC5392571, “A model for the conformational activation of the structurally quiescent metalloprotease ADAMTS13 by von willebrand factor” (The Journal of Biological Chemistry, 2017)

T1: WT MDTCS (ADAMTS13 residues 1–685) (human, UniProt Q76LX8 30-685)
T1 construct: signal peptide in the construct; ADAMTS13, human, residues 1-685 (metalloprotease, disintegrin-like, TSP1, cysteine-rich and spacer domains); In pCEP4; also called truncated ADAMTS13 variant MDTCS; source: HEK293S cells, purified; not shown: His6, C-terminal, kept
T1 sequence (looked up): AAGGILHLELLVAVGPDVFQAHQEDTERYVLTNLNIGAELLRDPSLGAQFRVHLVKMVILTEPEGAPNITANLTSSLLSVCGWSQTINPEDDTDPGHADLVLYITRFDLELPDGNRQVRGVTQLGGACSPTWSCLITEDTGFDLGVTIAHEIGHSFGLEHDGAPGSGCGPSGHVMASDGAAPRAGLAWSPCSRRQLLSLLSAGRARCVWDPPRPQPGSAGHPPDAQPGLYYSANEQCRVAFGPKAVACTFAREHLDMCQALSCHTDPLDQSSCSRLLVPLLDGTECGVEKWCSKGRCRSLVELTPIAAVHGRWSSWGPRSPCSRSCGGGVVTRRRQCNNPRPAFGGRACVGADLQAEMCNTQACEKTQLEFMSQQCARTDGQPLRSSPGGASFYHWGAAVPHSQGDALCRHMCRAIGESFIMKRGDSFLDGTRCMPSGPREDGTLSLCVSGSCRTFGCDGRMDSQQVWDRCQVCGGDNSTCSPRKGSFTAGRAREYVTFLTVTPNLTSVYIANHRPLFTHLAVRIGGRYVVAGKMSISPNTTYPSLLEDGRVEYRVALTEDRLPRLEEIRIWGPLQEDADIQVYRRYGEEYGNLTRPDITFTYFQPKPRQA


Tests used:
[1] = target: T1, WT MDTCS (ADAMTS13 residues 1–685); assay: SPR; BIAcore T100, CM5 chip; 10 mM HEPES, 150 mM NaCl, pH 7.4, 0.0034 mM EDTA, 0.005% Tween 20; the text says MDTCS variants were immobilised, the legend of Fig. 1 says the CUB fragments were; global analysis; settings: both partners purified
[2] = target: T2, dimeric VWF D4-CK domain fragment (VWF residues 1874–2813) (UniProt P04275 1874-2813); assay: SPR; BIAcore T100, CM5 chip; ADAMTS13, its truncation variants or CUB fragments immobilised, VWF D4-CK as analyte; 10 mM HEPES, 150 mM NaCl, pH 7.4, 0.0034 mM EDTA, 0.005% Tween 20; global analysis; settings: both partners purified
T2 construct: von Willebrand factor, residues 1874-2813 (D4 to CK domains); source: HEK293S, transiently expressed, purified by FPLC

Binder | Kd [1] | Kd [2]
CUB1-2 domain fragment (ADAMTS13 residues 1192–1427) (domain or fragment, human, UniProt Q76LX8 1192-1427, looked up, ADAMTS13, human, residues 1192-1427 (CUB1 and CUB2 domains); Generated by inverse PCR from the full-length ADAMTS13 construct (C-terminal Myc/His6); source: HEK293S cells, purified) CGRQHLEPTGTIDMRGPGQADCAVAIGRPLGEVVTLRVLESSLNCSAGDMLLLWGRLTWRKMCRKLLDMTFSSKTNTLVVRQRCGRPGGGVLLRYGSQLAPETFYRECDMQLFGPWGEIVSPSLSPATSNAGGCRLFINVAPHARIAIHALATNMGAGTEGANASYILIRDTHSLRTTAFHGQQVLYWESESSQAEMEFSEGFLKAQASLRGQYWTLQSWVPEMQDPQSWKGKEGT | 55.6 nM | 51.8 nM
CUB2 domain fragment (ADAMTS13 residues 1299–1427) (domain or fragment, human, UniProt Q76LX8 1299-1427, looked up, ADAMTS13, human, residues 1299-1427 (CUB2 domain); Generated by inverse PCR from the full-length ADAMTS13 construct (C-terminal Myc/His6); detected by anti-His6 in the co-IP; also called isolated CUB2 fragment; source: HEK293S cells, purified) CDMQLFGPWGEIVSPSLSPATSNAGGCRLFINVAPHARIAIHALATNMGAGTEGANASYILIRDTHSLRTTAFHGQQVLYWESESSQAEMEFSEGFLKAQASLRGQYWTLQSWVPEMQDPQSWKGKEGT | 86.9 nM | 84.3 nM
CUB1 domain fragment (ADAMTS13 residues 1192–1298) (domain or fragment, human, UniProt Q76LX8 1192-1298, looked up, ADAMTS13, human, residues 1192-1298 (CUB1 domain); Generated by inverse PCR from the full-length ADAMTS13 construct (C-terminal Myc/His6); detected by anti-His6 in the co-IP; also called isolated CUB1 fragment; source: HEK293S cells, purified) CGRQHLEPTGTIDMRGPGQADCAVAIGRPLGEVVTLRVLESSLNCSAGDMLLLWGRLTWRKMCRKLLDMTFSSKTNTLVVRQRCGRPGGGVLLRYGSQLAPETFYRE | 135 nM | 53.7 nM
